The text below walks through data of article PMC11053110 (Nature Communications, 2024).

For the assay, the target named is T1, GST-tagged IRF3 (human, UniProt Q14653 1-427).
T1 construct: also called GST-IRF3
T1 sequence (looked up): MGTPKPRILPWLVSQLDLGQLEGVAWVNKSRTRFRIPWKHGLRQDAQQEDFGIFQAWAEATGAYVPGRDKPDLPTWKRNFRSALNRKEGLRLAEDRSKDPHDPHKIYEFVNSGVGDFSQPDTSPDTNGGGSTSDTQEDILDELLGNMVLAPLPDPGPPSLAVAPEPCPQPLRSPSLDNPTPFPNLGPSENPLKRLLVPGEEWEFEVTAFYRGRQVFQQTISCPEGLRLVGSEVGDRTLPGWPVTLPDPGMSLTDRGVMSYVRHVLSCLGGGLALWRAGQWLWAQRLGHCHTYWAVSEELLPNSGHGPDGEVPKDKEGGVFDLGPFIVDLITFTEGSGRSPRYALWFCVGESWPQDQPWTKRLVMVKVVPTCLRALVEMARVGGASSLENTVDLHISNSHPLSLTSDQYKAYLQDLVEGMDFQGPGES
As to the kind of experiment: pull-down. Particulars: both partners purified.

B1: His-tagged EGLN1 (enzyme, human, UniProt Q9GZT9 1-426, looked up)
chain: MANDSGGPGGPSPSERDRQYCELCGKMENLLRCSRCRSSFYCCKEHQRQDWKKHKLVCQGSEGALGHGVGPHQHSGPAPPAAVPPPRAGAREPRKAAARRDNASGDAAKGKVKAKPPADPAAAASPCRAAAGGQGSAVAAEAEPGKEEPPARSSLFQEKANLYPPSNTPGDALSPGGGLRPNGQTKPLPALKLALEYIVPCMNKHGICVVDDFLGKETGQQIGDEVRALHDTGKFTDGQLVSQKSDSSKDIRGDKITWIEGKEPGCETIGLLMSSMDDLIRHCNGKLGSYKINGRTKAMVACYPGNGTGYVRHVDNPNGDGRCVTCIYYLNKDWDAKVSGGILRIFPEGKAQFADIEPKFDRLLFFWSDRRNPHEVQPAYATRYAITVWYFDADERARAKVKYLTGEKGVRVELNKPSDSVGKDVF
notes: also called His-EGLN1
For B1, the binding result is “binds”.
